According to article PMC9982069 (PNAS Nexus, 2023):
“And” between values parts separate entries of the source, which are not always exact repeats. Equal entries are not always repeated.

B1: M protein of Pipistrellus bat coronavirus HKU5 (batCOV5-M), wild type (natural protein)
chain: MASSNVTLSNDEVLRLVKDWNFTWSVVFLLITIVLQYGYPSRSMFVYVIKMFVLWLLWPASMALSIFCAVYPIDLASQIISGILAATSCAMWISYFVQSIRLFMRTGSWWSFNPESNCLLNVPIGGTTVVRPLVEDSTSVTAVVTDGYLKMAGMHFGACDFQRLPSEVTVAKPNVLIALKMIKRQAYGTNSGVAIYHRYKAGNYRRPPIIQDQELALLRA
B2: batCOV5-M, M protein of Pipistrellus bat coronavirus HKU5, affinity- and SEC-purified (cross-linking, MST) (natural protein)
chain: B1 chain

Assays:
[1] = biological target: batCOV5-N3 [change] (residues 391-427 of batCOV5 N protein) fused to C-terminal GFP-His10 (Pipistrellus bat coronavirus HKU5); test: MST; conditions: both partners purified
[2] = biological target: batCOV5-N3 [change] (residues 391-427 of batCOV5 N protein) fused to C-terminal GFP-His10 (Pipistrellus bat coronavirus HKU5); test: MST; conditions: both partners purified; remark: listed apart in the source
[3] = biological target: batCOV5-N3 [change] (residues 391-427 of batCOV5 N protein) fused to C-terminal GFP-His10 (Pipistrellus bat coronavirus HKU5); test: MST; conditions: both partners purified; remark: listed apart in the source
[4] = biological target: batCOV5-N3 [change] (residues 391-427 of batCOV5 N protein) fused to C-terminal GFP-His10 (Pipistrellus bat coronavirus HKU5); test: MST; conditions: both partners purified; remark: listed apart in the source
cross-linking = biological target: the molecule itself; test: cross-linking
[5] = biological target: batCOV5-N3 (residues 391-427) with C-terminal GFP-His10 (MST) (Pipistrellus bat coronavirus HKU5, UniProt A3EXD7 391-427); test: MST; conditions: both partners purified

Row | Binder | Kd [1] | Kd [2] | Kd [3] | Kd [4] | stoichiometry N (cross-linking) | Kd [5]
1 | B1 | 3.07 µM | 4.83 µM | 1.9 µM | 3.5 µM | 4 and 6 | –
2 | B2 | – | – | – | – | – | 0.77 µM
